From patent publication US20220372155A1 (LYVGEN BIOPHARMA, published 2022) come the findings set out here.

For the test, the target named is T1, human CD40 expressed on CHO cells (human, UniProt P25942 21-277).
T1 construct: whole, on cells; also used for the reporter cells over-expressing human CD40; also called cellular CD40; CHO-CD40 cells
Description: FACS, CHO cells. (In general: In flow cytometry, cells or beads pass a laser one at a time.)

T1 sequence (P25942 21-277): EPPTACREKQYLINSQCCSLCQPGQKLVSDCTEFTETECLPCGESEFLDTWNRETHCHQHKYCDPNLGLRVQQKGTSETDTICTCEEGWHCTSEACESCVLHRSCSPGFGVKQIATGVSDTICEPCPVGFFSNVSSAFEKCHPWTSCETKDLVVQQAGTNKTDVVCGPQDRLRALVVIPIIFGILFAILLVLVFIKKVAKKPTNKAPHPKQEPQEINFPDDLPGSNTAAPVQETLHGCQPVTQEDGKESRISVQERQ

B1: Ly464 (bispecific antibody, human IgG1, kappa)
heavy: QVQLKESGPGLVAPSQSLSITCTVSGFSLTDYGVRWIRQPPGKGLEWLGVIWGGGSTYYNSALKSRLSISKDNSKSQVFLKMNSLQTDDTAMYYCAKEKRRGYYYAMDYWGQGTSVTVSSASTKGPSVFPLAPSSKSTSGGTAALGCLVKDYFPEPVTVSWNSGALTSGVHTFPAVLQSSGLYSLSSVVTVPSSSLGTQTYICNVNHKPSNTKVDKKVEPKSCDKTHTCPPCPAPELLGPSVFLFPPKPKDTLMISRTPEVTCVVVDVSHEDPEVKFNWYVDGVEVHNAKTKPREEQYNSTYRVVSVLTVLHQDWLNGKEYKCKVSNKALPAPIEKTISKAKGQPREPQVYTLPPSREEMTKNQVSLTCLVKGFYPSDIAVEWESNGQPENNYKTTPPVLDSDGSFFLYSKLTVDKSRWQQGNVFSCSVMHEALHNHYTQKSLSLSPG
light: ENVLTQSPAIMSASPGEKVTMTCRASSSVSSSYLHWYQQKSGASPKLWIYSTSNLASGVPARFSGSGSGTSYSLTISSVEAEDAATYYCQQYSGYPLTFGGGTKLEIKRTVAAPSVFIFPPSDEQLKSGTASVVCLLNNFYPREAKVQWKVDNALQSGNSQESVTEQDSKDSTYSLSSTLTLSKADYEKHKVYACEVTHQGLSSPVTKSFNRGECGGGGSGGGGSGGGGSGGGGSDIQMTQSPSSLSASVGDRVTITCKASQNIYIYLNWYQQKPGKAPKLLIYNTNNLQTGVPSRFSGSGSGTDFTLTISSLQPEDFATYYCLQHSSRRTFGGGTKVEIKGGGGSGGGGSGGGGSGGGGSQVQLVESGGGLVQPGGSLKLSCATSGFNFNDYFMNWVRQASGKGLEWVGQIRNKNYNYATYYTESLEGRVTISRDDSKNTAYLQMNSLKTEDTAVYYCTSYYYDGFADYFDYWGQGTTVTVSS
notes: Ly368 HC + Ly368 LC-TM740 scFv VL-VH
In the case of B1, the binding result is “binds”.

B2: Ly469 (bispecific antibody, human IgG1, kappa)
heavy: B1 heavy
light: ENVLTQSPAIMSASPGEKVTMTCRASSSVSSSYLHWYQQKSGASPKLWIYSTSNLASGVPARFSGSGSGTSYSLTISSVEAEDAATYYCQQYSGYPLTFGGGTKLEIKRTVAAPSVFIFPPSDEQLKSGTASVVCLLNNFYPREAKVQWKVDNALQSGNSQESVTEQDSKDSTYSLSSTLTLSKADYEKHKVYACEVTHQGLSSPVTKSFNRGECGGGGSGGGGSGGGGSGGGGSEVQLVESGGGLVQPGGSLRLSCAASGFTFTNYGLHWVRQAPGKGLEWVSSISPSGGVTYYRDSVKGRFTISRDNSKNTLYLQMNSLRAEDTAVYYCAKPFLGWGGANWIAHWGQGTLVTVSSGGGGSGGGGSGGGGSGGGGSDIQMTQSPSSLSASVGDRVTITCLASEDISNDLAWYQQKPGKAPKLLIYFVDRLLDGVPSRFSGSGSGTDFTLTISSLQPEDFATYYCQQSYKYPPTFGQGTKLEIK
notes: Ly368 HC + Ly368 LC-TM559 scFv VH-VL
As for B2, the binding result was “binds”.

B3: Ly468 (bispecific antibody, human IgG1, kappa)
heavy: B1 heavy
light: ENVLTQSPAIMSASPGEKVTMTCRASSSVSSSYLHWYQQKSGASPKLWIYSTSNLASGVPARFSGSGSGTSYSLTISSVEAEDAATYYCQQYSGYPLTFGGGTKLEIKRTVAAPSVFIFPPSDEQLKSGTASVVCLLNNFYPREAKVQWKVDNALQSGNSQESVTEQDSKDSTYSLSSTLTLSKADYEKHKVYACEVTHQGLSSPVTKSFNRGECGGGGSGGGGSGGGGSGGGGSDIQMTQSPSSLSASVGDRVTITCLASEDISNDLAWYQQKPGKAPKLLIYFVDRLLDGVPSRFSGSGSGTDFTLTISSLQPEDFATYYCQQSYKYPPTFGQGTKLEIKGGGGSGGGGSGGGGSGGGGSEVQLVESGGGLVQPGGSLRLSCAASGFTFTNYGLHWVRQAPGKGLEWVSSISPSGGVTYYRDSVKGRFTISRDNSKNTLYLQMNSLRAEDTAVYYCAKPFLGWGGANWIAHWGQGTLVTVSS
notes: Ly368 HC + Ly368 LC-TM559 scFv VL-VH
Take B3: the binding result is “binds”.

B4: Ly465 (bispecific antibody, human IgG1, kappa)
heavy: B1 heavy
light: ENVLTQSPAIMSASPGEKVTMTCRASSSVSSSYLHWYQQKSGASPKLWIYSTSNLASGVPARFSGSGSGTSYSLTISSVEAEDAATYYCQQYSGYPLTFGGGTKLEIKRTVAAPSVFIFPPSDEQLKSGTASVVCLLNNFYPREAKVQWKVDNALQSGNSQESVTEQDSKDSTYSLSSTLTLSKADYEKHKVYACEVTHQGLSSPVTKSFNRGECGGGGSGGGGSGGGGSGGGGSQVQLVESGGGLVQPGGSLKLSCATSGFNFNDYFMNWVRQASGKGLEWVGQIRNKNYNYATYYTESLEGRVTISRDDSKNTAYLQMNSLKTEDTAVYYCTSYYYDGFADYFDYWGQGTTVTVSSGGGGSGGGGSGGGGSGGGGSDIQMTQSPSSLSASVGDRVTITCKASQNIYIYLNWYQQKPGKAPKLLIYNTNNLQTGVPSRFSGSGSGTDFTLTISSLQPEDFATYYCLQHSSRRTFGGGTKVEIK
notes: Ly368 HC + Ly368 LC-TM740 scFv VH-VL
Consider B4, for which the binding result is listed as “binds”.

B5: Ly466 (bispecific antibody, human IgG1, kappa)
heavy: QVQLKESGPGLVAPSQSLSITCTVSGFSLTDYGVRWIRQPPGKGLEWLGVIWGGGSTYYNSALKSRLSISKDNSKSQVFLKMNSLQTDDTAMYYCAKEKRRGYYYAMDYWGQGTSVTVSSASTKGPSVFPLAPSSKSTSGGTAALGCLVKDYFPEPVTVSWNSGALTSGVHTFPAVLQSSGLYSLSSVVTVPSSSLGTQTYICNVNHKPSNTKVDKKVEPKSCDKTHTCPPCPAPELLGPSVFLFPPKPKDTLMISRTPEVTCVVVDVSHEDPEVKFNWYVDGVEVHNAKTKPREEQYNSTYRVVSVLTVLHQDWLNGKEYKCKVSNKALPAPIEKTISKAKGQPREPQVYTLPPSREEMTKNQVSLTCLVKGFYPSDIAVEWESNGQPENNYKTTPPVLDSDGSFFLYSKLTVDKSRWQQGNVFSCSVMHEALHNHYTQKSLSLSPGGGGGSGGGGSGGGGSGGGGSDIQMTQSPSSLSASVGDRVTITCLASEDISNDLAWYQQKPGKAPKLLIYFVDRLLDGVPSRFSGSGSGTDFTLTISSLQPEDFATYYCQQSYKYPPTFGQGTKLEIKGGGGSGGGGSGGGGSGGGGSEVQLVESGGGLVQPGGSLRLSCAASGFTFTNYGLHWVRQAPGKGLEWVSSISPSGGVTYYRDSVKGRFTISRDNSKNTLYLQMNSLRAEDTAVYYCAKPFLGWGGANWIAHWGQGTLVTVSS
light: ENVLTQSPAIMSASPGEKVTMTCRASSSVSSSYLHWYQQKSGASPKLWIYSTSNLASGVPARFSGSGSGTSYSLTISSVEAEDAATYYCQQYSGYPLTFGGGTKLEIKRTVAAPSVFIFPPSDEQLKSGTASVVCLLNNFYPREAKVQWKVDNALQSGNSQESVTEQDSKDSTYSLSSTLTLSKADYEKHKVYACEVTHQGLSSPVTKSFNRGEC
notes: Ly368 HC-TM559 scFv VL-VH + Ly368 LC
Consider B5, for which the binding result is “binds”.

B6: Ly470 (bispecific antibody, human IgG1, kappa)
heavy: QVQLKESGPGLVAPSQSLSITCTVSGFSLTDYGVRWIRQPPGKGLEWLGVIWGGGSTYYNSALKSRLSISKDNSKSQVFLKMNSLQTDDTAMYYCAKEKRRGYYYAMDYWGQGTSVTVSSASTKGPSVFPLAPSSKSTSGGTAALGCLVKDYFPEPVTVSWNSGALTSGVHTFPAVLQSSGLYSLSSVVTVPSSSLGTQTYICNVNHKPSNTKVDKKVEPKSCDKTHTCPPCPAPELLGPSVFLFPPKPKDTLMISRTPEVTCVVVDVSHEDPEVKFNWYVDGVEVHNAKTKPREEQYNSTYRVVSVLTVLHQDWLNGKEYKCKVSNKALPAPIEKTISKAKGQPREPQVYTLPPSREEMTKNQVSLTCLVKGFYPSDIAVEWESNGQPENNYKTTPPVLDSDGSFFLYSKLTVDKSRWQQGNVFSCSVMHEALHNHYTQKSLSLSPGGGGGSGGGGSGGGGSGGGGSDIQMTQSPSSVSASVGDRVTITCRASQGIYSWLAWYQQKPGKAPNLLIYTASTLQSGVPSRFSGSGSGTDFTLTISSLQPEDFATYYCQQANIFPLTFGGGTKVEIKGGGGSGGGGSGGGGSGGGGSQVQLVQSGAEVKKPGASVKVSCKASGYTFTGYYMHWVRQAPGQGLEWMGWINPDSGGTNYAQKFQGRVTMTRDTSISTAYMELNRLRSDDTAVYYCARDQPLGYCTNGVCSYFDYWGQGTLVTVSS
light: B5 light
notes: Ly368 HC-Ly253 scFv VL-VH + Ly368 LC
For the molecule B6, the binding result was “binds”.

B7: Ly471 (bispecific antibody, human IgG1, kappa)
heavy: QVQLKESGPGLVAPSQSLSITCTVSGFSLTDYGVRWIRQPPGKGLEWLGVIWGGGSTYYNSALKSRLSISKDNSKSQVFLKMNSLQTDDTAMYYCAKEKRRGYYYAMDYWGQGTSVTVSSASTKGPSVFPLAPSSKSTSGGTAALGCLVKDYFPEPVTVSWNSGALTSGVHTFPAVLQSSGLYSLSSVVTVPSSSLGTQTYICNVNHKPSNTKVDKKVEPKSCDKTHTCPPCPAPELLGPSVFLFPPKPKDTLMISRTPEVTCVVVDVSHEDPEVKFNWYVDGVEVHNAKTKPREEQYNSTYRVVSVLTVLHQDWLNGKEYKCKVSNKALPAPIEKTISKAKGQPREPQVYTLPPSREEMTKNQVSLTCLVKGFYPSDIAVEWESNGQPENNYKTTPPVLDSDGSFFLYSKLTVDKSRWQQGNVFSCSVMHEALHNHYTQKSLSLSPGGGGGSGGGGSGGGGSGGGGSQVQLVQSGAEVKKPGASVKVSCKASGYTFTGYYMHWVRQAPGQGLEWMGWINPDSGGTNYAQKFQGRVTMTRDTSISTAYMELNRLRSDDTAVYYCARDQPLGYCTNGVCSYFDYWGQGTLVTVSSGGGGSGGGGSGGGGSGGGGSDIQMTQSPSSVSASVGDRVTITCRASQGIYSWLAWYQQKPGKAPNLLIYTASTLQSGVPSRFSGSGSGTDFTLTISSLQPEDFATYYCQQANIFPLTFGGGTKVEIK
light: B5 light
notes: Ly368 HC-Ly253 scFv VH-VL + Ly368 LC
Turning to B7, the binding result was “binds”.

B8: Ly467 (bispecific antibody, human IgG1, kappa)
heavy: QVQLKESGPGLVAPSQSLSITCTVSGFSLTDYGVRWIRQPPGKGLEWLGVIWGGGSTYYNSALKSRLSISKDNSKSQVFLKMNSLQTDDTAMYYCAKEKRRGYYYAMDYWGQGTSVTVSSASTKGPSVFPLAPSSKSTSGGTAALGCLVKDYFPEPVTVSWNSGALTSGVHTFPAVLQSSGLYSLSSVVTVPSSSLGTQTYICNVNHKPSNTKVDKKVEPKSCDKTHTCPPCPAPELLGPSVFLFPPKPKDTLMISRTPEVTCVVVDVSHEDPEVKFNWYVDGVEVHNAKTKPREEQYNSTYRVVSVLTVLHQDWLNGKEYKCKVSNKALPAPIEKTISKAKGQPREPQVYTLPPSREEMTKNQVSLTCLVKGFYPSDIAVEWESNGQPENNYKTTPPVLDSDGSFFLYSKLTVDKSRWQQGNVFSCSVMHEALHNHYTQKSLSLSPGGGGGSGGGGSGGGGSGGGGSEVQLVESGGGLVQPGGSLRLSCAASGFTFTNYGLHWVRQAPGKGLEWVSSISPSGGVTYYRDSVKGRFTISRDNSKNTLYLQMNSLRAEDTAVYYCAKPFLGWGGANWIAHWGQGTLVTVSSGGGGSGGGGSGGGGSGGGGSDIQMTQSPSSLSASVGDRVTITCLASEDISNDLAWYQQKPGKAPKLLIYFVDRLLDGVPSRFSGSGSGTDFTLTISSLQPEDFATYYCQQSYKYPPTFGQGTKLEIK
light: B5 light
notes: Ly368 HC-TM559 scFv VH-VL + Ly368 LC
B8: the binding result is “binds”.

B9: TM377 (antibody, human IgG4 S228P, kappa, V domains shown)
VH: EVQILETGGGLVKPGGSLRLSCATSGFNFNDSFMNWVRQAPGKGLEWVAQIRNKNYNYATYYTESLEGRVTISRDDSKSRVYLQVSSLRAEDSAVYYCTSYYYDGFADYFDYWGQGVMVTVSS
VL: DIKMTQSPSFLSASVGDSVTFTCKASQNIYIYLNWYQQKFGEAPKLLIYNTNNLQTGIPSRFSGSESGTVFTLTISSLQPEDVATYFCLQHSSRRTFGGGTKLELKR
notes: chimeric: LYV377 VH/human IgG4, LYV377 VL/kappa; also called chimeric parent TM377
B9: the binding result is reported as “binds”.
